Patent US20180185464A1

Target: human DC-SIGN (human) (UniProt Q9NNX6)
Experiment: cell-based or functional assay

Chain of UniProt Q9NNX6 (Q9NNX6 whole entry): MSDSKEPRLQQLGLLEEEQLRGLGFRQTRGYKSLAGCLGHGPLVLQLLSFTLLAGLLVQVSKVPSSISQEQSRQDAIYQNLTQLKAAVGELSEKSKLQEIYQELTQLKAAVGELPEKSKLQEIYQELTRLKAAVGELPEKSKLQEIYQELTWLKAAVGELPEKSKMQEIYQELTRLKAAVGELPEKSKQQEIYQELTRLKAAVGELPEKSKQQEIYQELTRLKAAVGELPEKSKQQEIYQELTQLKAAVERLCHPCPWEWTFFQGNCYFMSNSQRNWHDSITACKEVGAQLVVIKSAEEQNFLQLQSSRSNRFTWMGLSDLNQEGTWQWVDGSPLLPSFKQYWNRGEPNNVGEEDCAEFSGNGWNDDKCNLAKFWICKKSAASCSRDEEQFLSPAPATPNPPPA

Substance	Internalisation (MFI) DC-SIGN transgenic CD11c+ cells, PBS wash; liposomes engrafted with gp120-6his 27.43 µg/mL, 37 C (unengrafted 74.3)	Internalisation (MFI) DC-SIGN transgenic CD11c+ cells, imidazole wash; liposomes engrafted with gp120-6his 27.43 µg/mL, 37 C (unengrafted 77.2)	Internalisation (MFI) DC-SIGN transgenic CD11c+ cells, PBS wash; liposomes engrafted with FliC-6his 23.04 µg/mL, 37 C (unengrafted 74.3)	Internalisation (MFI) DC-SIGN transgenic CD11c+ cells, imidazole wash; liposomes engrafted with FliC-6his 23.04 µg/mL, 37 C (unengrafted 77.2)
histidine tagged gp120 (gp120-6his)	118	126	–	–
histidine-tagged FliC (FliC-6his) (from UniProt P06179 2-495) (ligand)	–	–	70.8	79.2
